Measurements: paper PMC7948472, “Structural basis for antigen recognition by methylated lysine–specific antibodies” (The Journal of Biological Chemistry, 2020)

T1: MAP3K2 peptide, NPIFEKFGKGGTYP (Homo sapiens)
T1 construct: MAP3K2 peptide surrounding Lys260, not methylated; also called non-methylated peptide; nonmethylated peptide; source: synthetic peptide (SCRUM Inc)
T1 chain: NPIFEKFGKGGTYP

B1: Fab F9 (Fab, V domains shown)
VH: QSVEESGGRLVTPGTPLTLTCTVSGFSLNSNAISWVRQAPGEGLEWVGAIYTHGSTVYANWAKGRFTISKTSTTIELKMTSLTTEDTATYFCARHGYTYSFNLWGPGTLVTVSS
VL: AQGLTQTPSPVSAALGGTVTINCQSSQSVYGNNRLAWYQQKPGQPPKRLIYQASTLDSGVPSRFSGSGSGTQFTLTISGVQCDDAATYYCQGGYSSGDAWAFGGGTEVVVK
notes: heavy chain of rabbit Fab clone F9; they are in PDB 6LDV chain H; light chain of rabbit Fab clone F9; they are in PDB 6LDV chain L; Purified on Ni-NTA, so a His tag is surmised; source: Expi293 cells, cotransfected, purified from supernatant (Ni-NTA, SEC)
B2: Fab E6 (Fab, V domains shown)
VH: DQSLEESGGRLVTPGTPLTLTCTVSGFSLNNNAMGWFRQAPGEGLEWIGAIYTDGSTYYASWAKGRFTISKTSTTIDLKMTSLTTEDTATYFCARHGYTYSFNLWGPGTLVTVSS
VL: DPVMTQTPPSVSAAVGGTVTISCQSSQSVYNNDNLAWYQQKPGQPPKRLIYGASTLDSGVPSRFKGSGSGTQFTLTISGVECDDAATYYCQGAYNVDIYPFGGGTEVVVK
notes: heavy chain of rabbit Fab clone E6; they are in PDB 6LDX chain H; light chain of rabbit Fab clone E6; they are in PDB 6LDX chain L; Purified on Ni-NTA, so a His tag is surmised; source: Expi293 cells, cotransfected, purified from supernatant (Ni-NTA, SEC)

Target: T1, MAP3K2 peptide, NPIFEKFGKGGTYP
Experiment: SPR; Biacore T200; each Fab immobilised on a CM5 chip by amine coupling; peptides injected at increasing concentrations; running buffer PBS with 0.005% Tween 20; global fitting of the curves, or steady-state analysis where kinetic parameters could not be determined (fast dissociation, low affinity)
Conditions: both partners purified

| Binder | Kd | koff | kon |
| --- | --- | --- | --- |
| B1 | 4000 nM | 0.33 ± 0.04 s⁻¹ | 86000 M⁻¹ s⁻¹ |
| B2 | 350 nM | 0.18 ± 0.01 s⁻¹ | 500000 M⁻¹ s⁻¹ |
